# Article PMC4493018, “A Unique Human Norovirus Lineage with a Distinct HBGA Binding Interface” (PLoS Pathogens, 2015)
# How the values were obtained:
# [1] = molecular target: P domain of the GII.21 OIF (Operation Iraqi Freedom) norovirus capsid protein VP1 (human norovirus GII.21 OIF virus); experiment: crystal structure
# [2] = molecular target: A antigen oligosaccharide; experiment: plate binding assay with coated oligosaccharides (OD450 read-out); conditions: P particles 10 μg/ml; oligosaccharides for plate coating at 2 μg/ml; parent: est. 0.04; read off a plot
# [3] = molecular target: Lea oligosaccharide; experiment: as above; conditions: P particles 10 μg/ml; oligosaccharides for plate coating at 2 μg/ml; parent: est. 0.85; read off a plot
# [4] = molecular target: T1, OIF P particle (Norovirus NLV/IF1998/2003/Iraq, UniProt Q6B7R3); experiment: ELISA, oligosaccharide coated on plate; type: binding; conditions: P particles 10 μg/ml, coated synthetic oligosaccharide 2 μg/ml (polyvalent PAA conjugate in the blocking assay), 37 °C
# T1 construct: P domain self-assembled to P particles of 830 kDa; GST fusion from E. coli BL21, GST cut off with thrombin
# [5] = molecular target: T2, OIF P domain (GII.21 OIF virus P dimer) (Norovirus NLV/IF1998/2003/Iraq, UniProt Q6B7R3); experiment: X-ray co-crystal structure, […] Å; conditions: co-crystallised without glycerol; 10 mM ligand; new HBGA site of B-, N- and T-loops; beta-Gal is major binding saccharide
# T2 construct: P domain, residues 220-527, pGEX-6P-1 GST fusion in E. coli BL21(DE3), GST cut off with PreScission protease; dimer
molecule,measurement,setting,value
P domain of the GII.21 OIF (Operation Iraqi Freedom) norovirus capsid protein VP1 (domain or fragment),stoichiometry N,[1],2
wild type P particle of OIF virus E358A,response,[2],0.08 OD450
wild type P particle of OIF virus D294A,response,[2],0.07 OD450
same,response,[3],0.32 OD450
"CC(=O)N[C@H]1C(O)O[C@H](CO)[C@@H](O[C@@H]2O[C@@H](C)[C@@H](O)[C@@H](O)[C@@H]2O)[C@@H]1O[C@@H]1O[C@H](CO)[C@H](O)[C@H](O)[C@H]1O (stereo partly drawn) [Le^a trisaccharide, β-Gal-(1,3)-(α-Fuc-(1,4))- GlcNAc]","ELISA, oligosaccharide coated on plate",[4],wild type P particle of OIF virus that binds strongly to Le^a oligosaccharide
same,"X-ray co-crystal structure, 2.00 Å",[5],we co-crystallized the OIF P domain with Le^a trisaccharide
